US20140093526A1 (RESEARCH FOUNDATION FOR MICROBIAL DISEASES OF OSAKA …, published 2014)

T1: HHV-6B gQ1 carboxy-terminal deletion mutant, position 1 to position 451 (human herpesvirus 6B (HHV-6B), UniProt Q9QJ11 25-451)
T1 construct: Expressed in 293T cells together with gQ2; also called gQ1 1-451
T1 chain: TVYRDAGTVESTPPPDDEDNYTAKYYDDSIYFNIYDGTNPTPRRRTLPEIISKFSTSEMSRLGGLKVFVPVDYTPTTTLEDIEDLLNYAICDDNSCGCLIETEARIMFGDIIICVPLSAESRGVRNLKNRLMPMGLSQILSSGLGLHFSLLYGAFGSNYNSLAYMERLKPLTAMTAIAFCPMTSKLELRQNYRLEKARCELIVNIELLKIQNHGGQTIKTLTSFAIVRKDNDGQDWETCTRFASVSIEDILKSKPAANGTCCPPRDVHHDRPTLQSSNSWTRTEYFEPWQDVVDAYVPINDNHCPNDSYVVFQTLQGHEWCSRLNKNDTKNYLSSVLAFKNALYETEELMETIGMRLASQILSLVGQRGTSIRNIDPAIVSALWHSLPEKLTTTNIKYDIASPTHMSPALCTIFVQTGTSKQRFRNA

T2: HHV-6B gQ1 carboxy-terminal deletion mutant, position 1 to position 466 (human herpesvirus 6B (HHV-6B), UniProt Q9QJ11 25-466)
T2 construct: Expressed in 293T cells together with gQ2; also called gQ1 1-466
T2 chain: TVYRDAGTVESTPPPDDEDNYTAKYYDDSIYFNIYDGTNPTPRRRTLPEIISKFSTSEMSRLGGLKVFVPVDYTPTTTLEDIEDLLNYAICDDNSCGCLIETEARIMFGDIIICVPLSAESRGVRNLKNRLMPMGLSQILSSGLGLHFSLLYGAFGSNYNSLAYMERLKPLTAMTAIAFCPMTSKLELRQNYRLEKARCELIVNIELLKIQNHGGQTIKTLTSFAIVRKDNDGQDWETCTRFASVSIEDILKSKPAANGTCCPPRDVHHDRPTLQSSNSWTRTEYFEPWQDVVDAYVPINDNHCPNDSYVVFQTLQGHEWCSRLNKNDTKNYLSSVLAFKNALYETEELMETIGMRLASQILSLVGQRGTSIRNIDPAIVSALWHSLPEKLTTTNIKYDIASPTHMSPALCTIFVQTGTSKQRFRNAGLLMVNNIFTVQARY

T3: HHV-6B gQ1 carboxy-terminal deletion mutant, position 1 to position 483 (human herpesvirus 6B (HHV-6B), UniProt Q9QJ11 25-483)
T3 construct: Expressed in 293T cells together with gQ2; also called gQ1 1-483
T3 chain: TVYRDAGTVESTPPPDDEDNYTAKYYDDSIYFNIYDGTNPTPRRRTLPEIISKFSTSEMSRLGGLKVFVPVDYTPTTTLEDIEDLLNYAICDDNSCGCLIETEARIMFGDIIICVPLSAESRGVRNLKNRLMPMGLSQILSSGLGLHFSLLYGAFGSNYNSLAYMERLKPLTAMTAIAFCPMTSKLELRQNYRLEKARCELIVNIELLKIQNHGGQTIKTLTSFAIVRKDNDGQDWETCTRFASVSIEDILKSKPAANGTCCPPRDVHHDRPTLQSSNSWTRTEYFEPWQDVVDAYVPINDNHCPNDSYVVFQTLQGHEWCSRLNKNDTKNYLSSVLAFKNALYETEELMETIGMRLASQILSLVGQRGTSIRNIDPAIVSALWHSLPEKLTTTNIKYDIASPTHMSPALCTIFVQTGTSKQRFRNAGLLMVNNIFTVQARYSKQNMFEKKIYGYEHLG

B1: monoclonal antibody KH-1 (anti-HHV-6B gQ1 neutralizing antibody) (antibody, V domains shown)
VH: EVQLQQSGPELEKPGASVKISCKASGYSFTGYNMNWVKQSNGKRLEWIGNIDPYYGGASYNQKFKGKATLTVDKSSTTAYMQLQSLTSEDSAVYYCARGGYGRYFDVWGAGTAVTVSS
VL: QIVLTQSPAIMSASPGEKVTMTCSASSSISYMHWYQQKPGTSPKRWIYDTSKLASGVPARFSGSGSGTSYSLTISNMESEDAATYYCHQRSRYHTFGGGTRLEIKR
notes: Mouse (BALB/c) hybridoma antibody; also called MAb KH-1; anti-gQ1 monoclonal antibody KH-1
B2: HHV-6B glycoprotein Q2 (gQ2) (other)
chain: LPFFSTLPKITSCCDHYVVLNSLSSVSSSTPTCLDGEILFQNAGQKFCRPFTDNRTIVYTMQDQVQRPWSVTWMDFNLVISDYGRAVIENLTESAMSAHKNGPRYLQMETFISDLFRYECHRDNRYVLEKKLQMFYPTTHMNELLFYPSDPTLPSPYGNGHY
notes: Co-expressed with gQ1 from plasmid in cells (293T); also called HHV-6B gQ2; BgQ2

Key:
[1] = biological target: T4, HHV-6B gQ1 point mutant C487W E488Q (human herpesvirus 6B (HHV-6B), UniProt Q9QJ11 25-486); assay: IFA with KH-1 on 293T cells expressing the point mutant
T4 construct: Expressed in 293T cells; W is used here

[2] = biological target: T5, HHV-6B gQ1 point mutant E488Q G489V (human herpesvirus 6B (HHV-6B), UniProt Q9QJ11 25-487); assay: as above
T5 construct: Expressed in 293T cells

[3] = biological target: T1, HHV-6B gQ1 carboxy-terminal deletion …; assay: IFA on 293T cells co-transfected with the gQ1 mutant and gQ2
[4] = biological target: T2, HHV-6B gQ1 carboxy-terminal deletion …; assay: as above
[5] = biological target: T3, HHV-6B gQ1 carboxy-terminal deletion …; assay: as above
[6] = biological target: T6, HHV-6B glycoprotein Q1 (gQ1), full length, wild type (human herpesvirus 6B (HHV-6B), UniProt Q9QJ11 25-488); assay: co-expression in cells
T6 construct: Viral envelope glycoprotein; Tested in lysates of HHV-6B (HST strain)-infected cells (immunoprecipitation) and expressed from plasmid in 293T cells (IFA), alone or with gQ2; also called HHV-6B gQ1; BgQ1

Row | Binder | binding result [1] | binding result [2] | binding result [3] | binding result [4] | binding result [5] | binding result [6]
1 | B1 | no binding | no binding | no binding | no binding | no binding | –
2 | B2 | – | – | – | – | – | binds
